Laboratory results published in the supplement of paper PMC10567573.

B1: KRT33B (parent)
chain: PAVDLNQVLNETRNQYEALVETNR

Variants of: B1
Test: protein stability index of a GFP-peptide fusion (GPS, HEK-293T) (PSI 1-6); higher = more stable
Settings: c terminus: a fixed tail appended
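Note: lentivirally expressed fusions sorted by FACS into six bins by GFP to DsRed ratio, PSI derived from sequencing read proportions per bin multiplied by bin number.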

Protein stability index: each site, then its substitutions
A18: Q 2.96; V 4.06; L 3.59; C 3.83; T 3.67; K 2.69; Y 3.96; M 3.55; R 2.53; P 4.28; D 4.43; N 3.89; F 3.48; I 3.55; H 4.09
E11: K 3.85; Y 3.85; V 3.88; T 4.1; M 3.31; G 3.85; I 3.97; C 4.3; Q 4.29; L 3.81; P 4.27; W 3.38
L5: H 3.83; F 3.38; A 3.8; K 4.79; V 3.02; E 4.53; C 3.97; R 4.4; S 4.78; Q 4.78; M 4; T 4.48; D 4.64
Y16: L 4.37; H 5.02; I 4.17; K 4.8; D 4.98; N 5.25; E 4.85; A 5.14; W 3.89; C 4.57; R 5.09; G 5.21; S 5.12; V 4.92; F 3.5
N14: H 3.53; M 2.05; T 3.21; Q 2.57; R 2.81; L 2.07; W 2.55; P 4.43; D 3.59; S 3.04; F 3.54; Y 3.42; E 2.68; C 2.82; I 2.02; A 2.25
T12: R 4.89; G 4.32; M 3.4; H 2.84; A 2.16; W 3.09; Q 2.85; Y 2.77; N 4.11; I 2.41; F 1.85; C 3.24; D 4.61; K 4.41
E17: T 3.62; S 4.24; K 3.48; P 4.39; Y 3.09; W 3.54; F 2.9; I 3.13; G 3.91; M 3.55; A 3.65; L 3.73; N 3.61; C 3.65; H 3.9; V 3.71; R 3.96
R24: E 4.13; S 4.15; G 4.72; V 1.45; I 2.59; L 2.54; A 4; K 3.97; F 3; T 3.87; W 3.46; H 4.24; M 2.16; N 4.16
V20: K 4.24; N 4.45; W 3.62; L 3.88; E 3.52; F 4.09; A 2.74; R 4.43; I 4.39; T 4.95; H 4.92; G 4.49; Y 4.22; M 2.8; D 5.39
P1: F 2.78; D 4.32; K 3.66; V 3.15; H 4.02; A 3.25; G 4.39; R 3.7; T 3.72; L 3.46; S 4.42; M 3.71; N 4.23; Y 3.33
V3: F 4.36; M 2.7; G 4.65; S 3.64; A 3.85; C 2.81; R 3.4; D 4.77; T 3.87
E21: K 4.2; H 4.19; A 3.85; G 4.22; Q 3.95; M 3.67; V 3.54; S 4.05; C 3.58; P 4.18; N 4.14
D4: I 3.41; M 4.15
